Source: patent publication US20120129892A1, “NOVEL PHARMACEUTICALLY ACCEPTABLE SALTS OF 4-(1H-IMIDAZOL-4-[…])PYRIDINE AND THEIR THERAPEUTICAL USES” (BIOPROJET, priority 2009, published 2012)
Several values for one entry are separate records, joined by “and”; a condition that tells them apart may be missing. Equal values may be shown once.

Experiments:
Assay in all cases: purified protein, by the assay type
Conditions in all cases: other: pH 7.4, 20 μM (S)-adenosyl methionine
[1] = substrate: C[C@@H](N)Cc1c[nH]cn1
[2] = substrate: NCCc1c[nH]cn1
[3] = substrate: c1cc(Cc2cnc[nH]2)ccn1

B1: human HMT (Homo sapiens) (protein)
chain: MASSMRSLFSDHGKYVESFRRFLNHSTEHQCMQEFMDKKLPGIIGRIGDTKSEIKILSIGGGAGEIDLQILSKVQAQYPGVCINNEVVEPSAEQIAKYKELVAKTSNLENVKFAWHKETSSEYQSRMLEKKELQKWDFIHMIQMLYYVKDIPATLKFFHSLLGTNAKMLIIVVSGSSGWDKLWKKYGSRFPQDDLCQYITSDDLTQMLDNLGLKYECYDLLSTMDISDCFIDGNENGDLLWDFLTETCNFNATAPPDLRAELGKDLQEPEFSAKKEGKVLFNNTLSFIVIEA
- Km [1]: 16.26 µM
- Vmax [1]: 0.56 µM/min
- Vmax/Km [1]: 0.034 min⁻¹
- Km [2]: 3.93 µM
- Vmax [2]: 0.19 µM/min
- Vmax/Km [2]: 0.048 min⁻¹
- Vmax [3]: 0.004 µM/min and 0.003 µM/min
- Vmax/Km [3]: 0.0011 min⁻¹ and 0.0012 min⁻¹
